Laboratory results: paper PMC12416549 (2024)
Residue numbers refer to the chain shown, from its start. In names and notes the source's numbering stands.

T1: TNFR1 (Homo sapiens, UniProt P19438)
T1 chain: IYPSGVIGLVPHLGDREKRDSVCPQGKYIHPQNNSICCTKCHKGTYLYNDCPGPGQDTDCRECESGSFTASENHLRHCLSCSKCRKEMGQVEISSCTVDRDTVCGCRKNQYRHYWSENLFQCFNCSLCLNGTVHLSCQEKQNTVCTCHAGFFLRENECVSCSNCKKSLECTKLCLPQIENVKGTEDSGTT

B1: E10P (designed binder)
chain: MTLQELLREPALRRAEAEAFRYALELLAEKFPEQKEYLLDLAEEIESQIRSLSGVDVEDVRKFLDKEWAWVKELLAEHPAELAEVEAARAARLAELRAEVEAKVAA
B2: F63Q (designed binder)
chain: B1 chain with P10E, F63Q
B3: E18L (designed binder)
chain: B1 chain with P10E, E18L
B4: L96V (designed binder)
chain: B1 chain with P10E, L96V
B5: A90Q (designed binder)
chain: B1 chain with P10E, A90Q
B6: E10V (designed binder)
chain: B1 chain with P10V
B7: D65P (designed binder)
chain: B1 chain with P10E, D65P
B8: V104P (designed binder)
chain: B1 chain with P10E, V104P
B9: E18S (designed binder)
chain: B1 chain with P10E, E18S
B10: K30T (designed binder)
chain: B1 chain with P10E, K30T
B11: E46D (designed binder)
chain: B1 chain with P10E, E46D
B12: A15N (designed binder)
chain: B1 chain with P10E, A15N
B13: A69M (designed binder)
chain: B1 chain with P10E, A69M
B14: L26N (designed binder)
chain: B1 chain with P10E, L26N
B15: E43H (designed binder)
chain: B1 chain with P10E, E43H
B16: E5D (designed binder)
chain: B1 chain with E5D, P10E
B17: M1I (designed binder)
chain: B1 chain with M1I, P10E
B18: R89S (designed binder)
chain: B1 chain with P10E, R89S
B19: E67P (designed binder)
chain: B1 chain with P10E, E67P
B20: L27Q (designed binder)
chain: B1 chain with P10E, L27Q
B21: D40Y (designed binder)
chain: B1 chain with P10E, D40Y
B22: L3G (designed binder)
chain: B1 chain with L3G, P10E
B23: L6A (designed binder)
chain: B1 chain with L6A, P10E
B24: L64K (designed binder)
chain: B1 chain with P10E, L64K
B25: A28Q (designed binder)
chain: B1 chain with P10E, A28Q
B26: H78M (designed binder)
chain: B1 chain with P10E, H78M
B27: S47Q (designed binder)
chain: B1 chain with P10E, S47Q
B28: E95N (designed binder)
chain: B1 chain with P10E, E95N
B29: K30M (designed binder)
chain: B1 chain with P10E, K30M
B30: I45A (designed binder)
chain: B1 chain with P10E, I45A
B31: L12M (designed binder)
chain: B1 chain with P10E, L12M
B32: R97S (designed binder)
chain: B1 chain with P10E, R97S
B33: D40K (designed binder)
chain: B1 chain with P10E, D40K
B34: A87M (designed binder)
chain: B1 chain with P10E, A87M
B35: L52C (designed binder)
chain: B1 chain with P10E, L52C
B36: E101C (designed binder)
chain: B1 chain with P10E, E101C
B37: V71K (designed binder)
chain: B1 chain with P10E, V71K
B38: L24H (designed binder)
chain: B1 chain with P10E, L24H
B39: I49C (designed binder)
chain: B1 chain with P10E, I49C
B40: L24M (designed binder)
chain: B1 chain with P10E, L24M
B41: A102G (designed binder)
chain: B1 chain with P10E, A102G
B42: A106P (designed binder)
chain: B1 chain with P10E, A106P
B43: F63V (designed binder)
chain: B1 chain with P10E, F63V
B44: L41C (designed binder)
chain: B1 chain with P10E, L41C
B45: A87Y (designed binder)
chain: B1 chain with P10E, A87Y
B46: V85D (designed binder)
chain: B1 chain with P10E, V85D
B47: E5Q (designed binder)
chain: B1 chain with E5Q, P10E
B48: R50V (designed binder)
chain: B1 chain with P10E, R50V
B49: A11G (designed binder)
chain: B1 chain with P10E, A11G
B50: L96G (designed binder)
chain: B1 chain with P10E, L96G
B51: E99L (designed binder)
chain: B1 chain with P10E, E99L
B52: L52S (designed binder)
chain: B1 chain with P10E, L52S
B53: E16W (designed binder)
chain: B1 chain with P10E, E16W
B54: L41I (designed binder)
chain: B1 chain with P10E, L41I
B55: A90S (designed binder)
chain: B1 chain with P10E, A90S
B56: A90W (designed binder)
chain: B1 chain with P10E, A90W
B57: R13H (designed binder)
chain: B1 chain with P10E, R13H
B58: R97E (designed binder)
chain: B1 chain with P10E, R97E
B59: A17V (designed binder)
chain: B1 chain with P10E, A17V

Target: T1, TNFR1
Test: yeast display SC50

apparent Kd (screen)	Binder
12.5 nM	B1
2.73 nM	B2
0.539 nM	B3
0.446 nM	B4
0.593 nM	B5
0.956 nM	B6
26.9 nM	B7
0.718 nM	B8
0.405 nM	B9
0.653 nM	B10
0.539 nM	B11
0.653 nM	B12
0.79 nM	B13
0.49 nM	B14
0.718 nM	B15
0.49 nM	B16
0.49 nM	B17
0.79 nM	B18
5.31 nM	B19
0.446 nM	B20

apparent Kd (screen)	Binder
11.4 nM	B21
20.2 nM	B22
1.54 nM	B23
20.2 nM	B24
4.83 nM	B25
0.49 nM	B26
0.956 nM	B27
0.718 nM	B28
0.539 nM	B29
13.8 nM	B30
0.593 nM	B31
0.956 nM	B32
9.41 nM	B33
0.49 nM	B34
2.48 nM	B35
0.49 nM	B36
12.5 nM	B37
1.54 nM	B38
2.48 nM	B39
0.718 nM	B40

apparent Kd (screen)	Binder
0.653 nM	B41
0.539 nM	B42
1.27 nM	B43
2.48 nM	B44
0.79 nM	B45
6.43 nM	B46
0.49 nM	B47
1.4 nM	B48
0.956 nM	B49
2.48 nM	B50
0.653 nM	B51
1.16 nM	B52
1.16 nM	B53
2.73 nM	B54
0.49 nM	B55
0.539 nM	B56
0.405 nM	B57
0.956 nM	B58
0.446 nM	B59
